# IntAct's records for PubMed 27456980
# B1: Lysosomal cobalamin transport escort protein LMBD1 (Homo sapiens), Q9NUN5 (parent)
# chain: MATSGAASAELVIGWCIFGLLLLAILAFCWIYVRKYQSRRESEVVSTITAIFSLAIALITSALLPVDIFLVSYMKNQNGTFKDWANANVSRQIEDTVLYGYYTLYSVILFCVFFWIPFVYFYYEEKDDDDTSKCTQIKTALKYTLGFVVICALLLLVGAFVPLNVPNNKNSTEWEKVKSLFEELGSSHGLAALSFSISSLTLIGMLAAITYTAYGMSALPLNLIKGTRSAAYERLENTEDIEEVEQHIQTIKSKSKDGRPLPARDKRALKQFEERLRTLKKRERHLEFIENSWWTKFCGALRPLKIVWGIFFILVALLFVISLFLSNLDKALHSAGIDSGFIIFGANLSNPLNMLLPLLQTVFPLDYILITIIIMYFIFTSMAGIRNIGIWFFWIRLYKIRRGRTRPQALLFLCMILLLIVLHTSYMIYSLAPQYVMYGSQNYLIETNITSDNHKGNSTLSVPKRCDADAPEDQCTVTRTYLFLHKFWFFSAAYYFGNWAFLGVFLIGLIVSCCKGKKSVIEGVDEDSDISDDEPSVYSA
# partner: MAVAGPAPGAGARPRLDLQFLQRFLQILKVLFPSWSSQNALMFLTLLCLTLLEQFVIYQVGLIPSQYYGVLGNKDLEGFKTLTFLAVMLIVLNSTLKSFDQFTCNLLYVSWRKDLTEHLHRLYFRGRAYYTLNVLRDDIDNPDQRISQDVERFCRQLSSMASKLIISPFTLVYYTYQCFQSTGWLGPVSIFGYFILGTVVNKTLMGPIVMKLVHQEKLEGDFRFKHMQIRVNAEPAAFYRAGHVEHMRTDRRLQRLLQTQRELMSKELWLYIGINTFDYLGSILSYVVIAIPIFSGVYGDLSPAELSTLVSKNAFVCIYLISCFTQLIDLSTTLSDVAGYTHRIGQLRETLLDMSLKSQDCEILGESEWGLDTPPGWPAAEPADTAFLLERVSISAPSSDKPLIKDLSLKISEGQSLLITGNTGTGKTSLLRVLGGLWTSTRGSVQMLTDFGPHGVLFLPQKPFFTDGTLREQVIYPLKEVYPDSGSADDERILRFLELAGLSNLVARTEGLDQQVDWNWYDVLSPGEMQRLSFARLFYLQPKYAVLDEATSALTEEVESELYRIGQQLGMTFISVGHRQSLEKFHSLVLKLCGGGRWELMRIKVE
# Variants of: B1
# Details: with abcd4_human ABCD4, O14678
row,Variant,effect of a mutation on the interaction
1,MATSGAASAELVIGWCIFGLLLLAILAFCWIYVRKYQSRRESEVVSTITAIFSLAIALITSALLPVDIFLVSYMKNQNGTFKDWANANVSRQIEDTVLYGYYTLYSVILFCVFFWIPFVYFYYEEKDDDDTSKCTQIKTALKYTLGFVVICALLLLVGAFVPLNVPNNKNSTEWEKVKSLFEELGSSHGLAALSFSISSLTLIGMLAAITYTAYGMSALPLNLIKGTRSAAYERLENTEDIEEVEQHIQTIKSKSKDGRPLPARDKRALKQFEERLRTLKKRERHLEFIENSWAAAACGALRPLKIVWGIFFILVALLFVISLFLSNLDKALHSAGIDSGFIIFGANLSNPLNMLLPLLQTVFPLDYILITIIIMYFIFTSMAGIRNIGIWFFWIRLYKIRRGRTRPQALLFLCMILLLIVLHTSYMIYSLAPQYVMYGSQNYLIETNITSDNHKGNSTLSVPKRCDADAPEDQCTVTRTYLFLHKFWFFSAAYYFGNWAFLGVFLIGLIVSCCKGKKSVIEGVDEDSDISDDEPSVYSA [W294A;T295A;K296A;F297A],with no effect
2,MATSGAASAELVIGWCIFGLLLLAILAFCWIYVRKYQSRRESEVVSTITAIFSLAIALITSALLPVDIFLVSYMKNQNGTFKDWANANVSRQIEDTVLYGYYTLYSVILFCVFFWIPFVYFYYEEKDDDDTSKCTQIKTALKYTLGFVVICALLLLVGAFVPLNVPNNKNSTEWEKVKSLFEELGSSHGLAALSFSISSLTLIGMLAAITYTAYGMSALPLNLIKGTRSAAAAAAENTEDIEEVEQHIQTIKSKSKDGRPLPARDKRALKQFEERLRTLKKRERHLEFIENSWWTKFCGALRPLKIVWGIFFILVALLFVISLFLSNLDKALHSAGIDSGFIIFGANLSNPLNMLLPLLQTVFPLDYILITIIIMYFIFTSMAGIRNIGIWFFWIRLYKIRRGRTRPQALLFLCMILLLIVLHTSYMIYSLAPQYVMYGSQNYLIETNITSDNHKGNSTLSVPKRCDADAPEDQCTVTRTYLFLHKFWFFSAAYYFGNWAFLGVFLIGLIVSCCKGKKSVIEGVDEDSDISDDEPSVYSA [Y232A;E233A;R234A;L235A],with no effect
